In one data set the target is CotH3 antigen (Rhizopus delemar, UniProt I1CFE1). The conditions noted are these: Protein G sensor, CotH3 6.25-400 nM, 25° C. As for the experimental part: The purified preparations were then used to assess the affinity of each clone for the CotH3 antigen by biolayer interferometry using Gator system (ProbeLife). Under the assumption that the CotH3 antigen provided by Vitalex behaves as a normal soluble monomeric protein, a Protein G coated sensor probe (ProbeLife, catalog #160006) was loaded with the bivalent antibody test clone at a concentration of 5 μg/ml in ProbeLife's kinetic buffer (PBS pH 7.4, 0.02% BSA, 0.002% Tween-20, 0.005% NaN3). A serial dilution of CotH3 antigen of 400, 200, 100, 50, 25, 12.5, 6.25 nM and buffer only (0 nM) was added to the sensors. All reactions were performed at 25° C. The values are chosen when three or more concentrations yield the same kinetic values. The original murine mAb was provided by Vitalex as the reference.
Sequence of CotH3 antigen (I1CFE1 18-601): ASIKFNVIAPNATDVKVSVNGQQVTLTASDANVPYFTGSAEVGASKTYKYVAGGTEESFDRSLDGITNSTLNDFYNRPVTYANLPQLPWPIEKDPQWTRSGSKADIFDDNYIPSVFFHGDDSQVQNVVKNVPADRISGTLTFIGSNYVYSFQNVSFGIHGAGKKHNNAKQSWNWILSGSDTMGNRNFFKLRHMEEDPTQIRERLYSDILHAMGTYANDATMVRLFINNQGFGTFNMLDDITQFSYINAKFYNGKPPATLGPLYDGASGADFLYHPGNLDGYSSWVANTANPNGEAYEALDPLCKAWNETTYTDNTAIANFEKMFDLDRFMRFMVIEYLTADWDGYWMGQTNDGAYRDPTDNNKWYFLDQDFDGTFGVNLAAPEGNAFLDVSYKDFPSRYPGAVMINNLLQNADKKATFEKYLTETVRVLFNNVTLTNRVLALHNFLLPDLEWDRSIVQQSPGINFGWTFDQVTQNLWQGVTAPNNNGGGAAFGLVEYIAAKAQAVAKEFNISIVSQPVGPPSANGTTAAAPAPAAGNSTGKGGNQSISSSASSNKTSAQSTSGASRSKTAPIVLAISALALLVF

The conditions of data set [1]: intravenous, single dose 10 μg, 30 μg or 100 μg, 1-168 hours.
Protocol: Pharmacokinetics study: Neutropenic mice were infected intratracheally with 25 μl of PBS containing 2.5×10^5 spores of Rhizopus delemear. […] After infection, mice were treated daily with 5 mg in 0.2 ml of irrigation water with ceftazidime subcutaneously to prevent bacterial superinfection. […] Mouse serum samples were collected at the time points: 1 hour, 2 hours, 4 hours, 8 hours, 24 hours, 72 hours, 120 hours, and 168 hours after the antibody injection. The antibody concentration in the mouse serum samples was detected by ELISA, with Flag-CotH3 as the coating protein, and anti-human-IgG-HRP as the secondary antibody.
Another data set has as its system R. delemar 99-880. The data set is described as follows: Neutropenic mouse model of mucormycosis, R. delemar 99-880 infection. In kind it is in vivo, Rhizopus delemar. The conditions noted are these: single dose of 30 μg 24 h after infection, lungs harvested day 4. Here is the method: Mouse models: Neutropenic mice model used male ICR mice (20 to 23 g) obtained from Envigo (NJ). Mice were injected with cyclophosphamide (200 mg/kg, given intraperitoneally) and cortisone acetate (500 mg/kg, given subcutaneously) on days −2, +3, and +8 relative to infection^(1).
Antibody treatment with a single dose of 30 μg humanized antibody, or isotype human IgG started 24 or 48 hours after infection and was administered by intraperitoneal injection. Time to moribundity (equated with survival) served as the primary endpoint. As a secondary endpoint and in some experiments, fungal burden in the lungs and brains (primary and secondary target organs) was determined 96 hours after infection by quantitative PCR assay, as we previously described^(3). Values were expressed as log10 spore equivalent per gram of tissue. Histopathological examination was carried out on sections of the harvested organs after fixing in 10% zinc formalin. The fixed organs were embedded in paraffin, and […] sections were stained with hematoxylin and eosin.

The target of a further data set is Mucorales CotH3 (Rhizopus delemar, UniProt I1CFE1).
Sequence of Mucorales CotH3 (I1CFE1 18-601): as above
For the next data set, the target named is T1, Mucorales CotH2 (Rhizopus delemar, UniProt I1C4E4).
T1 sequence (I1C4E4 whole entry, looked up): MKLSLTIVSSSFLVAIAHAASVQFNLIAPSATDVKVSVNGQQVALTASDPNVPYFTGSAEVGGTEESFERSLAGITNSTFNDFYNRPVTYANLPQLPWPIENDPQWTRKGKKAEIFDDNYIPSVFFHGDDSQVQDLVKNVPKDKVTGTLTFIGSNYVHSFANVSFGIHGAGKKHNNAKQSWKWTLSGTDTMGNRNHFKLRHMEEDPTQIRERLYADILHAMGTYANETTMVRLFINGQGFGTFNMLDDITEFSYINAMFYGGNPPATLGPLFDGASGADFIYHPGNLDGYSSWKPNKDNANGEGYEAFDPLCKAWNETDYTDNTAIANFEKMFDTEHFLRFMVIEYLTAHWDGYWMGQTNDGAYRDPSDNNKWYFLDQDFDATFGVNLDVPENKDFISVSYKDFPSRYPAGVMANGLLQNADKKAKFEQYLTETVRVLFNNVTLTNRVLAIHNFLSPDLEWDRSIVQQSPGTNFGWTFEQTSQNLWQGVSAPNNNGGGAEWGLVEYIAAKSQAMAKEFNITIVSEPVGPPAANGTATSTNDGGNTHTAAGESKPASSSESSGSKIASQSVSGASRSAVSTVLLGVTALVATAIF

B1: mAb: mouse monoclonal IgG1 kappa anti-CotH3 antibody, clone C2, raised against peptide SEQ ID NO:34 (antibody, V domains shown)
VH: DLQLQESGPSLVKPSQTLSLTCSVTGDSITSGYWNWIRKFPGNKLEHMGYIKYSGRTFYNPSLKSRVSITRDTSKNQYYLQLNSVTSEDTATYYCASRGYWGQGTTLTVSS
VL: DVVMTQTPLSLSVTIGQPASISCKSSQSLLYSNGKTYLNWLQQRPGQAPKLLMFQVSKPGIPDRFSGSGSETDFTLKISRVEAEDLGVYYCLQGTYFPHTFGAGTKVEIK
As to B1, in the data set with CotH3 antigen, the “Koff (S^−1)” value was found to be 1.41E−3 S^−1, the “Kon” value is 23900 M⁻¹ s⁻¹ and the Rmax is given as 0.69. For the same molecule, the “pharmacokinetics (serum antibody concentration)” value in data set [1] is recorded as “Dose dependent pharmacokinetics”. In the data set with R. delemar 99-880, the lung histology entry was “no fungal elements and normal lung architecture”. Also, the “specific binding to CotH3” value with Mucorales CotH3 was “bound specifically”. Further, the “specific binding to CotH2” value with Mucorales CotH2 was “bound specifically”.

(Values after patent US20240209070A1, “COTH3 BINDING AGENTS AND USES THEREOF” (priority 2021, published 2024).)
